Test [1] addresses gC1qR, wild type, mature recombinant (receptor for the globular heads of C1q) (UniProt Q07021). Briefly: SPR; gC1qR-WT or gC1qR-ΔΔ immobilised; two-fold dilution series of analyte injected; reference-corrected sensorgrams fit to kinetic models; apparent KD.
The target of test [2] is gC1qR-ΔΔ, gC1qR deletion mutant that removed the flexible, negatively charged loops (UniProt Q07021). Put plainly: not stated; not published; oligomeric state of gC1qR-ΔΔ in solution and in the crystal.

Chain of gC1qR, wild type, mature recombinant (receptor for the globular heads of C1q) (Q07021 74-282): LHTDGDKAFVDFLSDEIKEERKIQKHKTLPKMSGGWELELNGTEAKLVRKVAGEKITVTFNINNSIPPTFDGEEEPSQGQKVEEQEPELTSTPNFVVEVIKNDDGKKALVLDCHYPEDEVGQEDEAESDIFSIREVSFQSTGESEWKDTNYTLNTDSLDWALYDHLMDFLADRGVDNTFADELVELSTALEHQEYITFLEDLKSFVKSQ
Chain of gC1qR-ΔΔ, gC1qR deletion mutant that removed the flexible, negatively charged loops (from UniProt Q07021 74-282) (receptor) (Q07021 74-282, stated change not applied): as the sequence (Q07021 74-282) above

For the substance “SARS-CoV-2 Membrane-Envelope fusion protein, recombinant”, the Kd in test [1] was 410 nM. The substance “gC1qR-ΔΔ, gC1qR deletion mutant that removed the flexible, negatively charged loops (from UniProt Q07021 74-282) (receptor)” registered a stoichiometry N in test [2] of 3.

Source of the values: PMC8602850.
